Measurements from doi:10.1101/376806.

Target: Nucleosome: Xenopus laevis histone octamer with Cy3-labeled H2A T120C on Widom 601 DNA (Xenopus laevis)
Experiment: single-molecule fluorescence co-localisation with photobleaching step counting

- fraction of nucleosomes with one Chd1p: 47.8%
- fraction of nucleosomes with three Chd1ps: 21.7%
- fraction of nucleosomes with two Chd1ps: 30.4%
Substance: Alexa647-labeled Chd1p (from UniProt P32657 1-1468) (enzyme)
